The source of these data is PMC7781310.

This experiment has as its target sACE2_(2).v2.4-IgG1 (human) (UniProt Q9BYF1). Kind of experiment: BLI.

As to “SARS-CoV-2 RBD-8h N501Y (from UniProt P0DTC2 333-529) (domain or fragment)”, the Kd was < 0.1 nM.

The substance “SARS-CoV-2 RBD-8h Y449K (from UniProt P0DTC2 333-529) (domain or fragment)” had a koff of 0.004 s⁻¹.
